Assay results published in patent US20260266848A1, “COMPOSITIONS AND METHODS FOR DIAGNOSING AND TREATING DYSTONIA” (Duke University, priority 2023, published 2026).

B1: Ipo11 (protein, UniProt Q8K2V6 1-975, looked up)
Importin-11: MDLNSASSVVLQVLTQATSQDTAVLKPAEEQLKQWETQPGFYSVLLNIFTNHTLDINVRWLAVLYFKHGIDRYWRRVAPHALSEEEKSTLRAGLITNFNEPINQIATQIAVLIAKVARLDCPRQWPELIPTLVESVKVQDDLRQHRALLTFYHVTKTLASKRLAADRKLFYDLASGIYNFACSLWNHHTDTFLQHVSSGNEAAVLSSLERTLLSLKVLRKLTVNGFVEPHKNMEVMGFLHGIFERLKQFLECSRSIGTDNVCRDRLEKTIILFTKVLLDFLDQHPISFTPLIQRSLEFSVSYVFTEVGEGVTFERFIVQCMNLIKMIVKNYAYKPSKNFEDSSPETLEAHKIKMAFFTYPTLTEICRRLVSHYFLLTEEELTMWEEDPEGFTVEETGGDSWKYSLRPCTEVLFIDIFHEYNQTLTPVLLEMMQTLEGPTNVEDMNALLIKDAVYNAVGLAAFELFDSVDFDQWFKTQLLPELQVSHNRYKPLRRRVIWLIGQWISVKFKSDLRPMLYEAICNLLQDQDLVVRIETATTLKLTVDDFEFRTDQFLPYLETMFTLLFQLLQQVTECDTKMHVLHVLSCVIERVNVQIRPYVGCLVQYLPLLWKQSEEHNMLRCAILTTLIHLVQGLGADSKNLYPFLLPVIQLSTDVSQPPHVYLLEDGLELWLVTLENSPCVTPELLRIFQNMSPLLELSSENLRTCFKIINGYIFLSSTEFLQTYAAGLCQSFYELLPEITTEGQVQVLKVVENALKVNPVLGPQMFQRILPCVFRGVIEGERYPVVMSIYLAVMGRVLLQNTSFFSSLLNEMGHEFNQEMDQLLGNVIEMWVDRMDNITQPERKKLSALALLSLLPSDNSVIQDKFCGIINISVEALHDVMTEDPETRTYKDCMLMSQHEEPKVTEDEEPPTEQDKRKKMLALKDPVHTVSLQQFIYEKLKAQQEILGEQGFQSLMETVDTEIVTQLQEFLQGF
B2: Plaa (protein, UniProt P27612 1-794, looked up)
Phospholipase A-2-activating …: MASGASRYRLSCSLPGHELDVRGLVCCLYPPGAFVSVSRDRTTRLWAPDSPNRGFTEMHCMSGHSNFVSCVCIIPSSDIYPHGLIATGGNDHNICIFSLDSPMPLYILKGHKDTVCSLSSGKFGTLLSGSWDTTAKVWLNDKCMMTLQGHTAAVWAVKILPEQGLMLTGSADKTIKLWKAGRCERTFLGHEDCVRGLAILSETEFLSCANDASIRRWQITGECLEVYFGHTNYIYSISVFPNSKDFVTTAEDRSLRIWKHGECAQTIRLPAQSIWCCCVLENGDIVVGASDGIIRVFTESEERTASAEEIKAFERELSQATIDSKTGDLGDINAEQLPGREHLSEPGTREGQTRLIRDGERVEAYQWSVSDGRWIKIGDVVGSSGANQQTSGKVLYEGKEFDYVFSIDVNEGGPSYKLPYNVSDDPWLVAYNFLQKNDLNPMFLDQVAKFIIDNTKGQTLGLGNTSFSDPFTGGGRYVPGTSGPSNTVQTADPFTGAGRYMPGSAGMDTTMTGVDPFTGNSAYRSAASKTVNIYFPKKEALTFDQANPTQILGKLKELNGTAPEEKKLTEDDLVLLEKILSLICNNSSEKPTAQQLQILWKAINWPEDIVFPALDILRLSIKHPNVNENFCNEKGDQFSSHLINLLNPKGKPANQLLALRTFCNCFVSQAGQKLMMSQRESLMSHAIELKSGSNKNIHIALATLTLNYSVCFHKDHNIEGKAQCLSVISTILEVVQDLEATFRLLVALGTLISDDSNAIQLAKSLGVDSQIKKYVSVSEPAKVSECCRLVLHLL
B3: Ssbp1 (protein, UniProt Q9CYR0 17-152, looked up)
Single-stranded DNA-binding …: ESEVASSLVLERSLNRVQLLGRVGQDPVMRQVEGKNPVTIFSLATNEMWRSGDSEVYQMGDVSQKTTWHRISVFRPGLRDVAYQYVKKGARIFVEGKVDYGEYMDKNNVRRQATTIIAGKKLVVHSVSGCSLEGLA
B4: Qars (protein, UniProt Q8BML9 2-775, looked up)
Glutamine--tRNA ligase: ATPDSLALFTGLGLSENKARETLKNEALSTQLREAATQAHQILGSTIDKATGVLLYDLVSRLRDTRRRSFLVSYIANKKIHTGLQLSAALEYVRSHPQDPIDTKDFEQECGVGVVVTPEQIEEAVESTINKHQLQLLAERYRFNMGLLMGEARAALRWADGKMIKNEVDMQVLHLLGPKMEADLVKKPKVAKARLEETDRKTAKDVVEKGEVAGQTLSLMEQLRGEALKFHKPGENYKTPGYVITPYTMDLLKQHLEITGGQVRTRFPPEPNGILHIGHAKAINFNFGYAKANNGICFLRFDDTNPEKEEAKFFTAIYDMVTWLGYTPYKVTYASDYFDQLYAWAVELIHGGLAYVCHQRVEELKGHNPLPSPWRDRPKEESLLLFEAMRKGKFAEGEATLRMKLVMEDGKMDPVAYRVKYTPHHRTGDKWCIYPTYDYTHCLCDSIEHITHSLCTKEFQARRSSYFWLCNALKVYCPVQWEYGRLNLHYAVVSKRKILQLVAAGAVRDWDDPRLFTLTALRRRGFPPEAINNFCARVGVTVAQTTMEPHLLEACVRDVLNDAAPRAMAVLEPLQVVITNFPAPKPLDIRVPNFPADETKGFHQVPFASTVFIERSDFKEESEPGYKRLASGQPVGLRHTGYVIELQNIVRGSSGCVERLEVTCRRADAGEKPKAFIHWVSQPLVCEIRLYECLFQHKNPEDPVEVPGGFLSDLNPASLQVVEGALVDCSVALAKPFDKFQFERLGYFSVDPDSHQGQIVFNRTVTLKEDPGKI
B5: Fth1 (protein, UniProt P09528 1-182, looked up)
Ferritin heavy chain: MTTASPSQVRQNYHQDAEAAINRQINLELYASYVYLSMSCYFDRDDVALKNFAKYFLHQSHEEREHAEKLMKLQNQRGGRIFLQDIKKPDRDDWESGLNAMECALHLEKSVNQSLLELHKLATDKNDPHLCDFIETYYLSEQVKSIKELGDHVTNLRKMGAPEAGMAEYLFDKHTLGHGDES
B6: Dars (protein, UniProt Q922B2 1-501, looked up)
Aspartate--tRNA ligase, …: MPSTNASRKGQEKPREIVDAAEDYAKERYGISSMIQSQEKPDRVLVRVKDLTVQKADDVVWVRARVHTSRAKGKQCFLVLRQQQFNVQALVAVGDHASKQMVKFAANINKESIIDVEGVVRKVNQKIGSCTQQDVELHVQKIYVISLAEPRLPLQLDDAIRPEVEGEEDGRATVNQDTRLDNRVIDLRTSTSQAIFRLQSGICHLFRETLINKGFVEIQTPKIISAASEGGANVFTVSYFKNNAYLAQSPQLYKQMCICADFEKVFCIGPVFRAEDSNTHRHLTEFVGLDIEMAFNYHYHEVVEEIADTLVQIFKGLQERFQTEIQTVSKQFPCEPFKFLEPTLRLEYCEALAMLREAGVEMDDEEDLSTPNEKLLGRLVKEKYDTDFYVLDKYPLAVRPFYTMPDPRNPKQSNSYDMFMRGEEILSGAQRIHDPQLLTERALHHGIDLEKIKAYIDSFRFGAPPHAGGGIGLERVTMLFLGLHNVRQTSMFPRDPKRLTP
B7: Hnrnpf (protein, UniProt Q9Z2X1 1-415, looked up)
Heterogeneous nuclear …: MMLGPEGGEGYVVKLRGLPWSCSIEDVQNFLSDCTIHDGVAGVHFIYTREGRQSGEAFVELESEDDVKLALKKDRESMGHRYIEVFKSHRTEMDWVLKHSGPNSADSANDGFVRLRGLPFGCTKEEIVQFFSGLEIVPNGITLPVDPEGKITGEAFVQFASQELAEKALGKHKERIGHRYIEVFKSSQEEVRSYSDPPLKFMSVQRPGPYDRPGTARRYIGIVKQAGLDRMRSGAYSAGYGGYEEYSGLSDGYGFTTDLFGRDLSYCLSGMYDHRYGDSEFTVQSTTGHCVHMRGLPYKATENDIYNFFSPLNPVRVHIEIGPDGRVTGEADVEFATHEEAVAAMSKDRANMQHRYIELFLNSTTGASNGAYSSQVMQGMGVSAAQATYSGLESQSVSGCYGAGYSGQNSMGGYD
B8: Sec23a (protein, UniProt Q01405 2-765, looked up)
Protein transport protein …: TTYLEFIQQNEERDGVRFSWNVWPSSRLEATRMVVPVAALFTPLKERPDLPPIQYEPVLCSRTTCRAVLNPLCQVDYRAKLWACNFCYQRNQFPPTYAGISELNQPAELLPQFSSIEYVVLRGPQMPLIFLYVVDTCIEDEDLQALKESMQMSLSLLPPTALVGLITFGRMVQVHELGCEGISKSYVFRGTKDLSAKQLQEMLGLSKVPVTQATRGPQVQQPPPSNRFLQPVQKIDMNLTDLLGELQRDPWPVPQGKRPLRSSGVALSIAVGLLECTFPNTGARIMMFIGGPATQGPGMVVGDELKTPIRSWHDIEKDNAKYVKKGTKHFEALANRAATTGHVIDIYACALDQTGLLEMKCCPNLTGGYMVMGDSFNTSLFKQTFQRVFTKDIHGQFKMGFGGTLEIKTSREIKISGAIGPCVSLNSKGPCVSENEIGTGGTCQWKICGLSPTTTLAIYFEVVNQHNAPIPQGGRGAVQFVTQYQHSSGQRRIRVTTIARNWADAQTQIQNIAASFDQEAAAILMARLAIYRAETEEGPDVLRWLDRQLIRLCQKFGEYHKDDPNSFRFSETFSLYPQFMFHLRRSPFLQVFNNSPDESSYYRHHFMRQDLTQSLIMIQPILYAYSFSGPPEPVLLDSSSILADRILLMDTFFQILIYHGETIAQWRKSGYQDMPEYENFRHLLQAPVDDAQEILHSRFPMPRYIDTEHGGSQARFLLSKVNPSQTHNNMYAWGQESGAPILTDDVSLQVFMDHLKKLAVSSAA

Legend:
DYT-TOR1A MEF EVs = experiment: Quantitative LC-MS/MS proteomics of EVs from drug-treated DYT-TOR1A MEF cultures (ritonavir, salubrinal); format: cell-based, mouse; set-up: key to RTV Corrective Direction / RTV Corrective Direction, Grwd1 / RTV Corrective Direction, Srrm2 / RTV Corrective Direction, Rbm17 / RTV Corrective Direction, Dcaf8 / RTV Corrective Direction, Edil3 / RTV Corrective Direction, Timp3 / RTV Corrective Direction, Heatr3 / RTV Corrective Direction, Brd4 / RTV Corrective Direction, P3h4 / RTV Corrective Direction, Pacsin3 / RTV Corrective Direction, Naa50 / RTV Corrective Direction, Lpar6 / RTV Corrective Direction, Ndrg1 / RTV Corrective Direction, Kntc1 / RTV Corrective Direction, Cdk11b / RTV Corrective Direction, Sumo1 / RTV Corrective Direction, Lsm4 / RTV Corrective Direction, Hmga2 / RTV Corrective Direction, Cstf1 / RTV Corrective Direction, Tes / RTV Corrective Direction, Sbno1 / RTV Corrective Direction, Unc119b / RTV Corrective Direction, Cfdp1 / RTV Corrective Direction, Sec61b: YES = protein abundance effect opposite to DYT/WT; conditions: EV protein abundance; for RTV Corrective Direction: DYT + RTV (ritonavir) vs DYT, direction compared with DYT/WT; for DYT + RTV/DYT Cohen's d: ritonavir (RTV)-treated DYT vs DYT
WT MEF EVs = experiment: Quantitative LC-MS/MS proteomics of EVs from ISRIB-treated WT MEF cultures; format: cell-based, mouse; set-up: key to ISRIB and DYT Parallel Direction / ISRIB and DYT Parallel Direction, Ctdsp1 / ISRIB and DYT Parallel Direction, Pcdh19 / ISRIB and DYT Parallel Direction, Tspan7 / ISRIB and DYT Parallel Direction, Myo1e / ISRIB and DYT Parallel Direction, Plpp3 / ISRIB and DYT Parallel Direction, Sh3bp4 / ISRIB and DYT Parallel Direction, Dnajc7 / ISRIB and DYT Parallel Direction, Drg1 / ISRIB and DYT Parallel Direction, Maea: YES = protein abundance effect similar to DYT/WT; conditions: EV protein abundance; for WT + ISRIB/WT Cohen's d: ISRIB-treated WT vs WT; for ISRIB and DYT Parallel Direction: WT + ISRIB vs WT, direction compared with DYT/WT

Molecule | RTV Corrective Direction (DYT-TOR1A MEF EVs) | DYT + RTV/DYT Cohen's d (DYT-TOR1A MEF EVs) | WT + ISRIB/WT Cohen's d (WT MEF EVs) | ISRIB and DYT Parallel Direction (WT MEF EVs)
B1 | YES | 9.75 | −1.97 | YES
B2 | YES | 8.69 | −2.39 | YES
B3 | YES | 3.30 | −1.49 | YES
B4 | YES | 7.21 | −2.14 | YES
B5 | YES | 0.31 | −3.46 | YES
B6 | YES | 9.32 | −1.13 | YES
B7 | YES | 8.04 | −0.18 | YES
B8 | YES | 8.14 | −0.95 | YES
